Reference: article PMC5148590

Experiments:
[1] = target: Photobacterium profundum α-carbonic anhydrase (Photobacterium profundum SS9); assay: SEC; Hiprep 16/60 Sephacryl S-200 equilibrated with 20 mM Tris pH 7.5 and 150 mM NaCl; dimer to monomers
[2] = target: Photobacterium profundum α-carbonic anhydrase (Photobacterium profundum SS9); assay: non-reducing SDS-PAGE with protonography; purified PprCA in Laemmli loading buffer without 2-mercaptoethanol, 12% SDS gel, stained with Coomassie blue or by in-gel CO2 hydratase activity (bromothymol blue)

stoichiometry N [1]: 2 | stoichiometry N [2]: 2
Substance: Photobacterium profundum α-carbonic anhydrase (enzyme)
